Assay results taken from the supplement of paper PMC7125110.
± gives the standard error. For some of these results: Fewer inactive variants are shown than the library holds.

B1: glmS ribozyme (parent)
chain: AUAAAAGCGCCAGAACUACAGAAAUGUAGUUGACGAGGAGGAGGUUUAUCGAAUUUUCGGCGGAUGCCUCCAAA

Legend:
Conditions in all cases: with glucosamine-6-phosphate
glucosamine-6-phosphate [1] = variants of: B1; assay: kcat; higher = faster cleavage; RNA array
Summary of the method: (§1)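 Weighted Michaelis–Menten fits across concentrations supplied kcat and KM, based on kobs from one- or two-exponential decay fits to normalised per-tile medians. The data came from barcoded ribozyme variants transcribed in situ by E. coli RNA polymerase on sequenced MiSeq chips and tracked at 37 °C by a hybridised Cy3 probe. Glucosamine-6-phosphate (40 μM to 10 mM) in HEPES/KCl/Mg(OAc)2 buffer was flowed in.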

glucosamine-6-phosphate [2] = variants of: B1; assay: KM; higher = weaker cofactor use; RNA array
Summary of the method: as §1

glucosamine-6-phosphate [3] = variants of: B1; assay: self-cleavage kobs at 40 uM GlcN6P; higher = faster cleavage; RNA array
Summary of the method: as §1

glucosamine-6-phosphate [4] = variants of: B1; assay: self-cleavage kobs at 160 uM GlcN6P; higher = faster cleavage; RNA array
Summary of the method: as §1

glucosamine-6-phosphate [5] = variants of: B1; assay: self-cleavage kobs at 640 uM GlcN6P; higher = faster cleavage; RNA array
Summary of the method: as §1

glucosamine-6-phosphate [6] = variants of: B1; assay: self-cleavage kobs at 2500 uM GlcN6P; higher = faster cleavage; RNA array
Summary of the method: as §1

glucosamine-6-phosphate [7] = variants of: B1; assay: self-cleavage kobs at 10000 uM GlcN6P; higher = faster cleavage; RNA array
Summary of the method: as §1

Variant	kcat (glucosamine-6-phosphate [1]) [s⁻¹]	KM (glucosamine-6-phosphate [2]) [µM]	self-cleavage kobs at 40 uM GlcN6P (glucosamine-6-phosphate [3]) [s⁻¹]	self-cleavage kobs at 160 uM GlcN6P (glucosamine-6-phosphate [4]) [s⁻¹]	self-cleavage kobs at 640 uM GlcN6P (glucosamine-6-phosphate [5]) [s⁻¹]	self-cleavage kobs at 2500 uM GlcN6P (glucosamine-6-phosphate [6]) [s⁻¹]	self-cleavage kobs at 10000 uM GlcN6P (glucosamine-6-phosphate [7]) [s⁻¹]
A15G U46G	0.00908 ± 0.00054	2020 ± 170	0.000184 ± 2e-05	0.000667 ± 0.0001	0.00198 ± 0.00026	0.00538 ± 0.00091	0.00757 ± 0.00068
U45G C68G	0.000114 ± 1.6e-05	2980 ± 1100			2.89e-05 ± 1.3e-05	4.55e-05 ± 1.3e-05	8.96e-05 ± 1.3e-05
G29A U47C	0.000269 ± 1.9e-05	1400 ± 310			8.17e-05 ± 2.3e-05	0.000223 ± 9.2e-05	0.000233 ± 3.2e-05
C16A G32C	9.38e-05 ± 2.3e-06	1220 ± 140			3.44e-05 ± 1.6e-05	5.99e-05 ± 1.7e-05	8.41e-05 ± 1e-05
C16A G32A	0.0012 ± 0.00043				0.000229 ± 0.00011		0.000787 ± 0.00012
U56G U57G	< 1e-05						< 1e-05
U49G U65G	0.0002 ± 2.3e-05	6050 ± 1500				6.08e-05 ± 1.7e-05	0.000124 ± 1.8e-05
C67U U69G	3.43e-05 ± 1.5e-05			4.85e-05 ± 1.1e-05		4.75e-05 ± 1.2e-05	
C67U U69C	0.000129 ± 6e-05			4.3e-05 ± 2.1e-05	0.000113 ± 2e-05	4.99e-05 ± 2.3e-05	0.000226 ± 3.7e-05
C50U	0.000131 ± 9.2e-06	3300 ± 600			2.57e-05 ± 1.5e-06	5.29e-05 ± 1.6e-06	9.95e-05 ± 1.6e-06
A48C A53U	0.000244 ± 1.5e-05	2410 ± 320			4.84e-05 ± 1.1e-05	0.000131 ± 2e-05	0.000191 ± 3e-05
G29U G41C	4.75e-05 ± 1.3e-05						3.1e-05 ± 9e-06
A6C C10U C67G U69A	2.09e-05 ± 8.6e-06						
U31C C71G	0.000382 ± 8.8e-05	1970 ± 890			9.1e-05 ± 1.5e-05	0.000213 ± 3.5e-05	0.000321 ± 4.9e-05
A64G	0.0475 ± 0.0029	2080 ± 150	0.000914 ± 1.8e-05	0.0031 ± 0.0002	0.0109 ± 0.0004	0.0249 ± 0.0011	0.0412 ± 0.0018
C11U G32U	0.000176 ± 8e-05						3.94e-05 ± 5.4e-06
U45G C71A	0.000924 ± 0.00018	1750 ± 590	3.27e-05 ± 1.3e-05	8.6e-05 ± 1.7e-05	0.000204 ± 3.8e-05	0.000778 ± 0.00016	0.000766 ± 0.0001
